Data published in patent publication US20240417477A1 (B G NEGEV TECHNOLOGIES AND APPLICATIONS LTD AT BEN GURION …, published 2024).
Values belong to the binder of their own block, whether it stands above or below them.

Columns and labels:
[1] = molecular target: T1, human PD-1 recombinant protein (ACROBiosystems) (human, UniProt Q15116 25-167, biotinylated (in the ELISA, captured on streptavidin)); test: ELISA: biotinylated human PD-1 on streptavidin plate, dilutions of secreted construct, anti-human-Fc-HRP
T1 construct: Analyte in SPR; also called recombinant PD-1; human PD-1 protein
Protocol: (§1) The plates were then blocked, and incubated with serial dilutions of the antibodies. Next, anti-human-FC-HRP (Jackson laboratories) was added to the plates and a reaction was developed with TMB substrates. Once color developed H2SO4 was used to end the reaction. Plates were washed with PBST (PBS containing 0.05% Tween-20) between the steps. Each of the mentioned steps was carried out for 1 hour at room temperature. The plates were then read on a spectrophotometer at 450 nm.

[2] = molecular target: T2, human Axl recombinant protein (ACROBiosystems) (human, UniProt P30530 26-449, limits assumed); test: ELISA: human AXL recombinant protein on the plate, dilutions of secreted construct, anti-human-Fc-HRP
T2 construct: Coated on ELISA plates; analyte in SPR; also called recombinant AXL; human AXL protein
Protocol: as §1

[3] = molecular target: T3, human PD-1 receptor overexpressed on Bw-PD-1 reporter cells (fusion of PD-1 with a zeta chain) (human, UniProt Q15116 25-288); test: cell-based or functional assay
[4] = molecular target: T4, AXL expressed on HNSCC tumor cells (SCC47, SNU1076, FaDu) (human, UniProt P30530 26-894); test: cell-based or functional assay
[5] = molecular target: T3, human PD-1 receptor overexpressed on …; test: cell-based or functional assay; remark: listed apart in the source
[6] = molecular target: T4, AXL expressed on HNSCC tumor cells …; test: cell-based or functional assay; remark: listed apart in the source
[7] = molecular target: T2, human Axl recombinant protein …; test: SPR (Biorad ProteOn XPR36), antibody immobilised, recombinant AXL as analyte 3.125-50 nM
From the text: (§2) All four constructs were purified using Ni-NTA resins and diluted to different concentrations prior to ELISA binding analysis. […] To further determine the dissociation constant (KD value) of the mono specific and bi-specific antibodies to their respective targets, the surface plasmon resonance (SPR) method was utilized (using Biorad ProteOn XPR36). The different antibodies were immobilized in independent channels on a SPR sensor prism (ProteOn XPR36 compatible chip), as ligands. […] Based on the association and dissociation interaction between each of the recombinant proteins and the respective antibodies, respective KD values were calculated.

[8] = molecular target: T1, human PD-1 recombinant protein …; test: SPR (Biorad ProteOn XPR36), antibody immobilised, recombinant PD-1 as analyte 3.125-50 nM
From the text: as §2

[9] = molecular target: T2, human Axl recombinant protein …; test: ELISA: recombinant human AXL on the plate, purified antibody 0 to 50 nM, anti-human-Fc-HRP
Protocol: as §1, §2

[10] = molecular target: T1, human PD-1 recombinant protein …; test: ELISA: biotinylated recombinant human PD-1 on streptavidin plate, purified antibody 0 to 10 nM, anti-human-Fc-HRP
Protocol: as §1, §2

T1 sequence (Q15116 25-167 limits assumed): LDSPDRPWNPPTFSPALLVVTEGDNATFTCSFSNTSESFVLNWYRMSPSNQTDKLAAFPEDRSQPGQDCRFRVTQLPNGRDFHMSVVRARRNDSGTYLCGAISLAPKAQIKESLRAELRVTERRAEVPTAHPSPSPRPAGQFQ
T3 sequence (Q15116 25-288): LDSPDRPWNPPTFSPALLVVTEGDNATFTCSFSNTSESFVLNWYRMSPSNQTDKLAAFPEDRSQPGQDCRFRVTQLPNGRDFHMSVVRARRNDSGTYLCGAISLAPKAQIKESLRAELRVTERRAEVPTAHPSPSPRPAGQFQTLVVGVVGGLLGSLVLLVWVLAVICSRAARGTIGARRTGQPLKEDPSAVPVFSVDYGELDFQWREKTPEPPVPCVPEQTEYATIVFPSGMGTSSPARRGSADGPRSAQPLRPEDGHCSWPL

B1: Bi-2 bi-specific construct AXL-PD1-Fc (anti-AXL scFv-anti PD1 scFv-Fc) (bispecific antibody)
chain: DIQMTQSPSSLSASVGDRVTITCRASQDVSTAVAWYQQKPGKAPKLLIYSASFLYSGVPSRFSGSGSGTDFTLTISSLQPEDFATYYCQQSYTTPPTFGQGTKVEIKGGGGSGGGGSGGGGSGGGGSEVQLVESGGGLVQPGGSLRLSCAASGFSLSGSWIHWVRQAPGKGLEWVGWINPYRGYAYYADSVKGRFTISADTSKNTAYLQMNSLRAEDTAVYYCAREYSGWGGSSVGYAMDYWGQGTLVGGGGSGGGGSGGGGSGGGGSEIVLTQSPATLSLSPGERATLSCRASQSVSSYLAWYQQKPGQAPRLLIYDASNRATGIPARFSGSGSGTDFTLTISSLEPEDFAVYYCQQSSNWPRTFGQGTKVEIKGGGGSGGGGSGGGGSGGGGSQVQLVESGGGVVQPGRSLRLDCKASGITFSNSGMHWVRQAPGKGLEWVAVIWYDGSKRYYADSVKGRFTISRDNSKNTLFLQMNSLRAEDTAVYYCATNDDYWGQGTLVTVSSGGGGSGGGGSGGGGSGGGGSRSVECPPCPAPPVAGPSVFLFPPKPKDTLMISRTPEVTCVVVDVSHEDPEVKFNWYVDGVEVHNAKTKPREEQYNSTYRVVSVLTVLHQDWLNGKEYKCKVSNKGLPSSIEKTISKAKGQPREPQVYTLPPSREEMTKNQVSLTCLVKGFYPSDIAVEWESNGQPENNYKTTPPVLDSDGSFFLYSKLTVDKSRWQQGNVFSCSVMHEGLHNHYTQKSLSLSPGKHHHHHH
notes: Tandem anti-AXL scFv and anti-PD-1 scFv, engineered human IgG1 Fc, C-terminal His tag; also called BsAbI-AXL/PD-1
binding result [1]: binds
binding result [2]: binds

B2: Bi-3 bi-specific construct PD1-Fc-AXL (anti PD1 scFv-Fc-anti AXL scFv) (bispecific antibody)
chain: EIVLTQSPATLSLSPGERATLSCRASQSVSSYLAWYQQKPGQAPRLLIYDASNRATGIPARFSGSGSGTDFTLTISSLEPEDFAVYYCQQSSNWPRTFGQGTKVEIKGGGGSGGGGSGGGGSGGGGSQVQLVESGGGVVQPGRSLRLDCKASGITFSNSGMHWVRQAPGKGLEWVAVIWYDGSKRYYADSVKGRFTISRDNSKNTLFLQMNSLRAEDTAVYYCATNDDYWGQGTLVTVSSGGGGSGGGGSGGGGSGGGGSRSVECPPCPAPPVAGPSVFLFPPKPKDTLMISRTPEVTCVVVDVSHEDPEVKFNWYVDGVEVHNAKTKPREEQYNSTYRVVSVLTVLHQDWLNGKEYKCKVSNKGLPSSIEKTISKAKGQPREPQVYTLPPSREEMTKNQVSLTCLVKGFYPSDIAVEWESNGQPENNYKTTPPVLDSDGSFFLYSKLTVDKSRWQQGNVFSCSVMHEGLHNHYTQKSLSLSPGKGGGGSGGGGSGGGGSGGGGSDIQMTQSPSSLSASVGDRVTITCRASQDVSTAVAWYQQKPGKAPKLLIYSASFLYSGVPSRFSGSGSGTDFTLTISSLQPEDFATYYCQQSYTTPPTFGQGTKVEIKGGGGSGGGGSGGGGSGGGGSEVQLVESGGGLVQPGGSLRLSCAASGFSLSGSWIHWVRQAPGKGLEWVGWINPYRGYAYYADSVKGRFTISADTSKNTAYLQMNSLRAEDTAVYYCAREYSGWGGSSVGYAMDYWGQGTLVHHHHHH
notes: Anti-PD-1 scFv at the N-terminus and anti-AXL scFv at the C-terminus of an engineered human IgG1 Fc, C-terminal His tag; also called BsAbI-AXL/PD-1; BsAb-AXL/PD1 (Bi-3)
FaDu GFP / Bw-PD-1 mCherry cell doublets by flow cytometry, against the combination of mono Abs and no treatment [3]: 2.5 fold
FaDu GFP / Bw-PD-1 mCherry cell doublets by flow cytometry, against the combination of mono Abs and no treatment [4]: 2.5 fold
%Gated 'Doublets & Focused' (image stream, Area BF against Aspect Ratio BF), FaDu-plx GFP cells mixed with DiD-stained Bw-PD-1 cells; same figure: No treatment 690 / 7.6, Combo 442 / 4.9 [5]: 17.8 %Gated
%Gated 'Doublets & Focused' (image stream, Area BF against Aspect Ratio BF), FaDu-plx GFP cells mixed with DiD-stained Bw-PD-1 cells; same figure: No treatment 690 / 7.6, Combo 442 / 4.9 [6]: 17.8 %Gated
Kd [7]: 60 nM
koff [7]: 0.00247 s⁻¹
kon [7]: 41100 M⁻¹ s⁻¹
Kd [8]: 5.82 nM
koff [8]: 0.000743 s⁻¹
kon [8]: 128000 M⁻¹ s⁻¹

Other lines, results leading:

binding result [9]: no binding (tested: 50 nM)
B3: mono-specific anti-PD-1 scFv-Fc PD-1-2 (from Nivolumab) (Fc fusion)
chain: EIVLTQSPATLSLSPGERATLSCRASQSVSSYLAWYQQKPGQAPRLLIYDASNRATGIPARFSGSGSGTDFTLTISSLEPEDFAVYYCQQSSNWPRTFGQGTKVEIKGGGGSGGGGSGGGGSGGGGSQVQLVESGGGVVQPGRSLRLDCKASGITFSNSGMHWVRQAPGKGLEWVAVIWYDGSKRYYADSVKGRFTISRDNSKNTLFLQMNSLRAEDTAVYYCATNDDYWGQGTLVTVSSGGGGSGGGGSGGGGSGGGGS
notes: the tie is by this chain of statements; also called mono-PD-1; mono PD-1; not shown: engineered human IgG1 Fc (hinge, CH2, CH3) of plasmid pFUSE-hIgG1e3-Fc2; C-terminal His tag

Kd [7]: 20.9 nM
koff [7]: 0.00102 s⁻¹
kon [7]: 49000 M⁻¹ s⁻¹
binding result [10]: no binding (tested: 10 nM)
B4: mono-specific anti-AXL scFv-Fc AXL2 (from YW327.6S2) (Fc fusion)
chain: DIQMTQSPSSLSASVGDRVTITCRASQDVSTAVAWYQQKPGKAPKLLIYSASFLYSGVPSRFSGSGSGTDFTLTISSLQPEDFATYYCQQSYTTPPTFGQGTKVEIKGGGGSGGGGSGGGGSGGGGSEVQLVESGGGLVQPGGSLRLSCAASGFSLSGSWIHWVRQAPGKGLEWVGWINPYRGYAYYADSVKGRFTISADTSKNTAYLQMNSLRAEDTAVYYCAREYSGWGGSSVGYAMDYWGQGTLVGGGGSGGGGSGGGGSGGGGS
notes: also called mono-AXL; AXL2 scFv-Fc; not shown: engineered human IgG1 Fc (hinge, CH2, CH3) of plasmid pFUSE-hIgG1e3-Fc2; C-terminal His tag

binding result [1]: binds
EC50 (read off the curve) [9]: ~5 nM
B5: Bi-1 bi-specific construct PD1-AXL-Fc (anti PD1 scFv-anti AXL scFv-Fc) (bispecific antibody)
chain: EIVLTQSPATLSLSPGERATLSCRASQSVSSYLAWYQQKPGQAPRLLIYDASNRATGIPARFSGSGSGTDFTLTISSLEPEDFAVYYCQQSSNWPRTFGQGTKVEIKGGGGSGGGGSGGGGSGGGGSQVQLVESGGGVVQPGRSLRLDCKASGITFSNSGMHWVRQAPGKGLEWVAVIWYDGSKRYYADSVKGRFTISRDNSKNTLFLQMNSLRAEDTAVYYCATNDDYWGQGTLVTVSSGGGGSGGGGSGGGGSGGGGSDIQMTQSPSSLSASVGDRVTITCRASQDVSTAVAWYQQKPGKAPKLLIYSASFLYSGVPSRFSGSGSGTDFTLTISSLQPEDFATYYCQQSYTTPPTFGQGTKVEIKGGGGSGGGGSGGGGSGGGGSEVQLVESGGGLVQPGGSLRLSCAASGFSLSGSWIHWVRQAPGKGLEWVGWINPYRGYAYYADSVKGRFTISADTSKNTAYLQMNSLRAEDTAVYYCAREYSGWGGSSVGYAMDYWGQGTLVGGGGSGGGGSGGGGSGGGGSRSVECPPCPAPPVAGPSVFLFPPKPKDTLMISRTPEVTCVVVDVSHEDPEVKFNWYVDGVEVHNAKTKPREEQYNSTYRVVSVLTVLHQDWLNGKEYKCKVSNKGLPSSIEKTISKAKGQPREPQVYTLPPSREEMTKNQVSLTCLVKGFYPSDIAVEWESNGQPENNYKTTPPVLDSDGSFFLYSKLTVDKSRWQQGNVFSCSVMHEGLHNHYTQKSLSLSPGKHHHHHH
notes: Tandem anti-PD-1 scFv (Nivolumab-derived) and anti-AXL scFv (YW327.6S2-derived), engineered human IgG1 Fc (pFUSE-hIgG1e3-Fc2), C-terminal His tag; also called BsAbI-AXL/PD-1; BsAb-AXL/PD1
